# Experimental data reported in the supplement of paper PMC9112550, “Optimization of the antimicrobial peptide Bac7 by deep mutational scanning” (BMC Biology, 2022).
# Test system: Escherichia coli TOP10
# Test: shrunken log2 fold change of peptide-encoding DNA abundance (4.5 h post-induction vs induction); higher = less antimicrobial activity (less host growth inhibition)
# Conditions: time post-induction: 4.5 h; library: site-saturation at positions 5, 18, 19, 20
# 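Also: peptides expressed intracellularly from a pBAD plasmid library in pooled LB shake-flask culture, induced with 0.3% L-arabinose, DNA abundance read by NGS, three biological replicates, DESeq2 with apeglm shrinkage.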
row,Sequence,shrunken log2 fold change
1,RRIRPRPPRLPRPRPRPHKMPRP,-0.403
2,RRIRYRPPRLPRPRPRPCSYPRP,-0.0018
3,RRIRKRPPRLPRPRPRPHMGPRP,-0.0935
4,RRIRVRPPRLPRPRPRPFGFPRP,-0.294
5,RRIRIRPPRLPRPRPRPDNPPRP,-0.152
6,RRIRTRPPRLPRPRPRPVVMPRP,-0.0861
7,RRIRPRPPRLPRPRPRPTLHPRP,0.0853
8,RRIRKRPPRLPRPRPRPIQHPRP,-0.311
9,RRIRHRPPRLPRPRPRPNCIPRP,-0.753
10,RRIRQRPPRLPRPRPRPSRYPRP,-0.00452
11,RRIRVRPPRLPRPRPRPCADPRP,-0.101
12,RRIRQRPPRLPRPRPRPWWHPRP,0.00797
13,RRIRMRPPRLPRPRPRPHEYPRP,-0.308
14,RRIRGRPPRLPRPRPRPNHEPRP,0.0434
15,RRIRWRPPRLPRPRPRPRYRPRP,0.124
16,RRIRDRPPRLPRPRPRPQHIPRP,-0.762
17,RRIRERPPRLPRPRPRPHWCPRP,0.0281
18,RRIRCRPPRLPRPRPRPVYNPRP,-0.378
19,RRIRARPPRLPRPRPRPPVSPRP,0.554
20,RRIRMRPPRLPRPRPRPIVPPRP,0.208
21,RRIRHRPPRLPRPRPRPLALPRP,-0.563
22,RRIRERPPRLPRPRPRPRVGPRP,0.33
23,RRIRHRPPRLPRPRPRPTVMPRP,-0.0285
24,RRIRKRPPRLPRPRPRPSVQPRP,0.0869
25,RRIRFRPPRLPRPRPRPWMCPRP,-0.0872

row,Sequence,shrunken log2 fold change
1,RRIRGRPPRLPRPRPRPTFGPRP,0.404
2,RRIRKRPPRLPRPRPRPDQYPRP,0.0833
3,RRIRKRPPRLPRPRPRPAAWPRP,0.443
4,RRIRWRPPRLPRPRPRPFFDPRP,0.0993
5,RRIRSRPPRLPRPRPRPWSNPRP,-0.0394
6,RRIRTRPPRLPRPRPRPECLPRP,0.105
7,RRIRDRPPRLPRPRPRPMWGPRP,-0.0471
8,RRIRTRPPRLPRPRPRPDHMPRP,-0.109
9,RRIRRRPPRLPRPRPRPHHFPRP,-0.196
10,RRIRYRPPRLPRPRPRPLTFPRP,-0.696
11,RRIRIRPPRLPRPRPRPLTNPRP,-0.572
12,RRIRFRPPRLPRPRPRPFDVPRP,-0.247
13,RRIRGRPPRLPRPRPRPIEKPRP,0.942
14,RRIRGRPPRLPRPRPRPRTCPRP,0.592
15,RRIRNRPPRLPRPRPRPQKKPRP,0.0889
16,RRIRQRPPRLPRPRPRPKTCPRP,-0.0119
17,RRIRPRPPRLPRPRPRPYINPRP,-0.739
18,RRIRDRPPRLPRPRPRPYIFPRP,3.58
19,RRIRHRPPRLPRPRPRPITQPRP,-0.0204
20,RRIRDRPPRLPRPRPRPDIEPRP,0.105
21,RRIRKRPPRLPRPRPRPKQGPRP,0.121
22,RRIRIRPPRLPRPRPRPFWYPRP,0.00745
23,RRIRARPPRLPRPRPRPNLAPRP,-0.179
24,RRIRRRPPRLPRPRPRPMVPPRP,0.135
25,RRIRRRPPRLPRPRPRPPGQPRP,0.422
